Data published in patent US20140274782A1, “AFFINITY REAGENTS AND METHODS FOR DETECTION, PURIFICATION, AND PROTEOMIC ANALYSIS OF METHYLATED PROTEINS” (The Board of Trustees of the Leland Stanford Junior …, priority 2013, published 2014).

T1: G9a and GLP (Homo sapiens, UniProt Q96KQ7+Q9H9B1)
T1 sequence (Q96KQ7 2-1210 limits assumed): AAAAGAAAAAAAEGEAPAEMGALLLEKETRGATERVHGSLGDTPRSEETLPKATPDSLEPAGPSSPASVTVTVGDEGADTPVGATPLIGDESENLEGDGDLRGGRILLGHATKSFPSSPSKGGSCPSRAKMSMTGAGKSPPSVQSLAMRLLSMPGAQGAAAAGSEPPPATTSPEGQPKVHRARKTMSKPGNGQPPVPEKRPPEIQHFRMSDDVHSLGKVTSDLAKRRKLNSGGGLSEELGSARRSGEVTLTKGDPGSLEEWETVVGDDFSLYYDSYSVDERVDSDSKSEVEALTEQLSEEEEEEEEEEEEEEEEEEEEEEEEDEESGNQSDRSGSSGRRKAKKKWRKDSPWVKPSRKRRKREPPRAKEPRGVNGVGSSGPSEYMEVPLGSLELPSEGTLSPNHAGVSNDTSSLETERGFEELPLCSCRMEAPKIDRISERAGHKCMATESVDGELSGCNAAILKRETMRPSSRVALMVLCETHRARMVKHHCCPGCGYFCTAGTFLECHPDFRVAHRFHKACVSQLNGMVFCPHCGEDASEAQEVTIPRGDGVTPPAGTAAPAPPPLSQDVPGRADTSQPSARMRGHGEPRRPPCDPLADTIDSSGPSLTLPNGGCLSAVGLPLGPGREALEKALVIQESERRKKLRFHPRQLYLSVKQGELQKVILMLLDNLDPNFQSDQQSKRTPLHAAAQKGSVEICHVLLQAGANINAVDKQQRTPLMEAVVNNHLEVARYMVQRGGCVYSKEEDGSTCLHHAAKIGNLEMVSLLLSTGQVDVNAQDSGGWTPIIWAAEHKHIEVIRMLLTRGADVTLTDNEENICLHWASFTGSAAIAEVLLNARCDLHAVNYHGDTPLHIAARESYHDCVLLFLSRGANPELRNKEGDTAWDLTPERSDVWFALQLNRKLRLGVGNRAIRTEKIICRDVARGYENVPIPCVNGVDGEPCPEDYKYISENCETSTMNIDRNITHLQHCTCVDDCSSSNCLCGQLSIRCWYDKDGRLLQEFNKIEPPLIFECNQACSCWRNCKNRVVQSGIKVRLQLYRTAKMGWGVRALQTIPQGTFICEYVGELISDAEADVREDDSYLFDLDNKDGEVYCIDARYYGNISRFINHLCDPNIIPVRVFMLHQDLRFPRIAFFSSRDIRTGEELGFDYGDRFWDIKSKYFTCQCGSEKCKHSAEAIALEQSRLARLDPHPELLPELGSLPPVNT
T1 sequence (Q9H9B1 2-1298 limits assumed): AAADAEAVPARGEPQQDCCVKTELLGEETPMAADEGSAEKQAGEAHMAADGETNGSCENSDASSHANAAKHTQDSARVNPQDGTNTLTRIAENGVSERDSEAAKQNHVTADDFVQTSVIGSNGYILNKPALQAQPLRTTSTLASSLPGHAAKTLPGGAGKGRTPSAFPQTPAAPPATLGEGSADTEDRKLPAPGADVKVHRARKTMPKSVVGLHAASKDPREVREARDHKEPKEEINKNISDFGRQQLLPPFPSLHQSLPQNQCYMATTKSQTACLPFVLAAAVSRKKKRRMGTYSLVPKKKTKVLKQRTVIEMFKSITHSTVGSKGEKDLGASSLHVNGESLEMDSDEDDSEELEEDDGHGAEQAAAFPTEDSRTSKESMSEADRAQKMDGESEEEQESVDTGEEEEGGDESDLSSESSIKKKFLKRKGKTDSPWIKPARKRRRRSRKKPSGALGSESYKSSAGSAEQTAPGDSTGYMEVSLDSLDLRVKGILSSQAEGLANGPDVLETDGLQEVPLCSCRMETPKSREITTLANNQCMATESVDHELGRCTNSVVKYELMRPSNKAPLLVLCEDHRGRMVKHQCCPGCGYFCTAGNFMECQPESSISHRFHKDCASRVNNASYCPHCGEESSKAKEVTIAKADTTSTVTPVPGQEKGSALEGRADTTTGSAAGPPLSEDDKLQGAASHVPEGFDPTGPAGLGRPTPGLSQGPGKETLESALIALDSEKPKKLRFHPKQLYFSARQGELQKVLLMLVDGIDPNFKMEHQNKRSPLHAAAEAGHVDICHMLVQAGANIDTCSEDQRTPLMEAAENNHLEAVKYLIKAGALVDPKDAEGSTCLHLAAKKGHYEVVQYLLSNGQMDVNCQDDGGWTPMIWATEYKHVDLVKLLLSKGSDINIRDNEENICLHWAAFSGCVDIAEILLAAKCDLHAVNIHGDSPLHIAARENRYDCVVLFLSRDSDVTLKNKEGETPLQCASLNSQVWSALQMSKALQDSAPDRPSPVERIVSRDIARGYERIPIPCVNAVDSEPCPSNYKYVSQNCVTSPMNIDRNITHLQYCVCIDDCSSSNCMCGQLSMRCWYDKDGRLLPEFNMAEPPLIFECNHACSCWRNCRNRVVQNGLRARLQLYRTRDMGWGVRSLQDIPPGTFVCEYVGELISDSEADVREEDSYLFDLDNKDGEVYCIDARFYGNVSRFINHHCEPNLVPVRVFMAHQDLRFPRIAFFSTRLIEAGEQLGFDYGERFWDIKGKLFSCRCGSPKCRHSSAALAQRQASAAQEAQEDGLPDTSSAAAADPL

B1: SAFB (protein, UniProt Q15424 2-915, looked up)
Scaffold attachment factor B1: AETLSGLGDSGAAGAAALSSASSETGTRRLSDLRVIDLRAELRKRNVDSSGNKSVLMERLKKAIEDEGGNPDEIEITSEGNKKTSKRSSKGRKPEEEGVEDNGLEENSGDGQEDVETSLENLQDIDIMDISVLDEAEIDNGSVADCVEDDDADNLQESLSDSRELVEGEMKELPEQLQEHAIEDKETINNLDTSSSDFTILQEIEEPSLEPENEKILDILGETCKSEPVKEESSELEQPFAQDTSSVGPDRKLAEEEDLFDSAHPEEGDLDLASESTAHAQSSKADSLLAVVKREPAEQPGDGERTDCEPVGLEPAVEQSSAASELAEASSEELAEAPTEAPSPEARDSKEDGRKFDFDACNEVPPAPKESSTSEGADQKMSSPEDDSDTKRLSKEEKGRSSCGRNFWVSGLSSTTRATDLKNLFSKYGKVVGAKVVTNARSPGARCYGFVTMSTAEEATKCINHLHKTELHGKMISVEKAKNEPVGKKTSDKRDSDGKKEKSSNSDRSTNLKRDDKCDRKDDAKKGDDGSGEKSKDQDDQKPGPSERSRATKSGSRGTERTVVMDKSKGVPVISVKTSGSKERASKSQDRKSASREKRSVVSFDKVKEPRKSRDSESHSRVRERSEREQRMQAQWEREERERLEIARERLAFQRQRLERERMERERLERERMHVEHERRREQERIHREREELRRQQELRYEQERRPAVRRPYDLDRRDDAYWPEAKRAALDERYHSDFNRQDRFHDFDHRDRGRYPDHSVDRREGSRSMMGEREGQHYPERHGGPERHGRDSRDGWGGYGSDKRMSEGRGLPPPPRRDWGDHGRREDDRSWQGTADGGMMDRDHKRWQGGERSMSGHSGPGHMMNRGGMSGRGSFAPGGASRGHPIPHGGMQGGFGGQSRGSRPSDARFTRRY
B2: ADAR (protein, UniProt P55265 1-1226, looked up)
Double-stranded RNA-specific …: MNPRQGYSLSGYYTHPFQGYEHRQLRYQQPGPGSSPSSFLLKQIEFLKGQLPEAPVIGKQTPSLPPSLPGLRPRFPVLLASSTRGRQVDIRGVPRGVHLRSQGLQRGFQHPSPRGRSLPQRGVDCLSSHFQELSIYQDQEQRILKFLEELGEGKATTAHDLSGKLGTPKKEINRVLYSLAKKGKLQKEAGTPPLWKIAVSTQAWNQHSGVVRPDGHSQGAPNSDPSLEPEDRNSTSVSEDLLEPFIAVSAQAWNQHSGVVRPDSHSQGSPNSDPGLEPEDSNSTSALEDPLEFLDMAEIKEKICDYLFNVSDSSALNLAKNIGLTKARDINAVLIDMERQGDVYRQGTTPPIWHLTDKKRERMQIKRNTNSVPETAPAAIPETKRNAEFLTCNIPTSNASNNMVTTEKVENGQEPVIKLENRQEARPEPARLKPPVHYNGPSKAGYVDFENGQWATDDIPDDLNSIRAAPGEFRAIMEMPSFYSHGLPRCSPYKKLTECQLKNPISGLLEYAQFASQTCEFNMIEQSGPPHEPRFKFQVVINGREFPPAEAGSKKVAKQDAAMKAMTILLEEAKAKDSGKSEESSHYSTEKESEKTAESQTPTPSATSFFSGKSPVTTLLECMHKLGNSCEFRLLSKEGPAHEPKFQYCVAVGAQTFPSVSAPSKKVAKQMAAEEAMKALHGEATNSMASDNQPEGMISESLDNLESMMPNKVRKIGELVRYLNTNPVGGLLEYARSHGFAAEFKLVDQSGPPHEPKFVYQAKVGGRWFPAVCAHSKKQGKQEAADAALRVLIGENEKAERMGFTEVTPVTGASLRRTMLLLSRSPEAQPKTLPLTGSTFHDQIAMLSHRCFNTLTNSFQPSLLGRKILAAIIMKKDSEDMGVVVSLGTGNRCVKGDSLSLKGETVNDCHAEIISRRGFIRFLYSELMKYNSQTAKDSIFEPAKGGEKLQIKKTVSFHLYISTAPCGDGALFDKSCSDRAMESTESRHYPVFENPKQGKLRTKVENGEGTIPVESSDIVPTWDGIRLGERLRTMSCSDKILRWNVLGLQGALLTHFLQPIYLKSVTLGYLFSQGHLTRAICCRVTRDGSAFEDGLRHPFIVNHPKVGRVSIYDSKRQSGKTKETSVNWCLADGYDLEILDGTRGTVDGPRNELSRVSKKNIFLLFKKLCSFRYRRDLLRLSYGEAKKAARDYETAKNYFKKGLKDMGYGNWISKPQEEKNFYLCPV
B3: HNRNPUL1 (protein, UniProt Q9BUJ2 1-856, looked up)
Heterogeneous nuclear …: MDVRRLKVNELREELQRRGLDTRGLKAELAERLQAALEAEEPDDERELDADDEPGRPGHINEEVETEGGSELEGTAQPPPPGLQPHAEPGGYSGPDGHYAMDNITRQNQFYDTQVIKQENESGYERRPLEMEQQQAYRPEMKTEMKQGAPTSFLPPEASQLKPDRQQFQSRKRPYEENRGRGYFEHREDRRGRSPQPPAEEDEDDFDDTLVAIDTYNCDLHFKVARDRSSGYPLTIEGFAYLWSGARASYGVRRGRVCFEMKINEEISVKHLPSTEPDPHVVRIGWSLDSCSTQLGEEPFSYGYGGTGKKSTNSRFENYGDKFAENDVIGCFADFECGNDVELSFTKNGKWMGIAFRIQKEALGGQALYPHVLVKNCAVEFNFGQRAEPYCSVLPGFTFIQHLPLSERIRGTVGPKSKAECEILMMVGLPAAGKTTWAIKHAASNPSKKYNILGTNAIMDKMRVMGLRRQRNYAGRWDVLIQQATQCLNRLIQIAARKKRNYILDQTNVYGSAQRRKMRPFEGFQRKAIVICPTDEDLKDRTIKRTDEEGKDVPDHAVLEMKANFTLPDVGDFLDEVLFIELQREEADKLVRQYNEEGRKAGPPPEKRFDNRGGGGFRGRGGGGGFQRYENRGPPGGNRGGFQNRGGGSGGGGNYRGGFNRSGGGGYSQNRWGNNNRDNNNSNNRGSYNRAPQQQPPPQQPPPPQPPPQQPPPPPSYSPARNPPGASTYNKNSNIPGSSANTSTPTVSSYSPPQPSYSQPPYNQGGYSQGYTAPPPPPPPPPAYNYGSYGGYNPAPYTPPPPPTAQTYPQPSYNQYQQYAQQWNQYYQNQGQWPPYYGNYDYGSYSGNTQGGTSTQ

Tests used:
[1] = system: 3×MBT domain of L3MBTL1; assay: Triple SILAC pull-down, 3xMBT/3xMBTD355N ratio (cytoplasmic, nuclear and chromatin fractions of 293T cells); assay type: binding, human; details: SILAC ratio, pull-down 3xMBT vs 3xMBTD355N; for 3xMBT/D355N UNC Heavy: experiment with UNC0638 in heavy SILAC media; for 3xMBT/D355N UNC Light: experiment with UNC0638 in light SILAC media;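 on all read-outs here: proteins quantified with MaxQuant, requiring at least two unique peptides and quantification in both label directions, normalized to the mean of proteins from a digested loading control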
[2] = target: T1, G9a and GLP; assay: Triple SILAC pull-down after UNC0638 treatment of 293T cells, DMSO/UNC0638 ratio of protein captured by 3×MBT; assay type: cell-based; parameters: endogenous in cells; host or cells: HEK 293T; details: for Relative to UNC0638 UNC Heavy / Relative to UNC0638 UNC Light: SILAC ratio DMSO/UNC0638 of protein pulled down with 3xMBT; for Relative to UNC0638 UNC Heavy: UNC0638 in heavy SILAC media; for Relative to UNC0638 UNC Light: UNC0638 in light SILAC media; for Relative to UNC0638 Average: average of UNC Light and UNC Heavy experiments;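 on all read-outs here: mass spectrometry (Q-Exactive) SILAC quantitation, DMSO/UNC0638 ratio computed after subtracting 3×MBTD355N mutant pull-down background, only proteins with at least twofold 3×MBT over mutant signal considered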

Molecule | 3xMBT/D355N UNC Heavy [1] [log base 2] | 3xMBT/D355N UNC Light [1] [log base 2] | Relative to UNC0638 UNC Heavy [2] [log base 2] | Relative to UNC0638 UNC Light [2] [log base 2] | Relative to UNC0638 Average [2] [log base 2]
B1 | 2.38 | 2.76 | 0.11 | 0.35 | 0.23
B2 | 2.00 | 2.47 | 0.37 | 0.07 | 0.22
B3 | 2.97 | 3.07 | −0.17 | 0.61 | 0.22
